For assay [1], the target named is recombinant human Axl-Fc chimera (rhAxl-Fc; R&D Systems, Cat. no. 154-AL) (human) (UniProt P30530). In words: SPR two-injection competition on immobilised Axl-Fc; first injection.
Assay [2] has the same target. In words: SPR two-injection competition on immobilised Axl-Fc; second injection, competitor bound first: 10G5.
Assay [3] has the same target. In words: SPR two-injection competition on immobilised Axl-Fc; second injection, competitor bound first: YW327.6S2.
For assay [4] the target is unchanged. In words: SPR two-injection competition on immobilised Axl-Fc; response expected for the second sample (first: 10G5).
The target is the same in assay [5]. In words: SPR two-injection competition on immobilised Axl-Fc; response expected for the second sample (first: YW327.6S2).
Assay [6] deals with T1, recombinant human Axl-Fc chimera (rhAxl-Fc; R&D Systems, Cat. no. 154-AL) (human, UniProt P30530 26-451).
T1 construct: Bought construct; also called rhAxi-Fc; Hu-Axl-Fc; Fc part of the bought chimera not given
In words: SPR (Biacore 3000, 25 C), rhAxl-Fc immobilised; ln2/koff. (SPR reads the build-up and loss of mass on a sensor chip optically.)

In assay [7] the target is T1, recombinant human Axl-Fc chimera …. In words: SPR (Biacore), rhAxl immobilised; same values as Table 1.
Assay [8] has the same target. In words: SPR (Biacore 3000, 25 C), rhAxl-Fc immobilised (190 RU), antibody as analyte, koff/kon.
For assay [9] the target is unchanged. In words: SPR (Biacore 3000, 25 C), rhAxl-Fc immobilised (190 RU), antibody as analyte, 1:1 Langmuir.
For assay [10], the target named is T2, recombinant cyno-Axl-Fc (extracellular domain of Axl from Macaca fascicularis fused to human Fc) (cynomolgus monkey (Macaca fascicularis), UniProt P30530 26-451 (human entry)).
T2 construct: Made by transient expression in CHO cells; also called Axl from cynomolgus monkey; not shown: human Fc
T2 chain: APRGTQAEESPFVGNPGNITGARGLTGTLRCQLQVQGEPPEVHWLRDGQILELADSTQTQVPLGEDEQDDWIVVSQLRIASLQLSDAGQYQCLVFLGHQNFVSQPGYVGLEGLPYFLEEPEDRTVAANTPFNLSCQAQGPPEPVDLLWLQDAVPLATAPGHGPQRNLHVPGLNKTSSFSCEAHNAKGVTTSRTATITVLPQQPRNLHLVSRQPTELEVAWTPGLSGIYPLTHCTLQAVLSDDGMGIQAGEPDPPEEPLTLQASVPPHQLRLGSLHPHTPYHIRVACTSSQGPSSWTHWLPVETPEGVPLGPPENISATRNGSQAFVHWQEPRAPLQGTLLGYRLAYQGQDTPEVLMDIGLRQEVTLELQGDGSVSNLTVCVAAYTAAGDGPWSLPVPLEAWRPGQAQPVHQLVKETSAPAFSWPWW
In words: Biacore 3000 SPR, cyno-Axl-Fc on a CM5 chip, antibody injected at 10 µg/mL for 3 min, 5 min dissociation [upper panel 10G5].

Assay [11] deals with T3, recombinant human Mer-Fc chimera (rhMer-Fc; R&D Systems, Cat no. 891-MR) (human, UniProt Q12866 21-505).
T3 construct: Bought construct; Fc part of the bought chimera not given
T3 sequence: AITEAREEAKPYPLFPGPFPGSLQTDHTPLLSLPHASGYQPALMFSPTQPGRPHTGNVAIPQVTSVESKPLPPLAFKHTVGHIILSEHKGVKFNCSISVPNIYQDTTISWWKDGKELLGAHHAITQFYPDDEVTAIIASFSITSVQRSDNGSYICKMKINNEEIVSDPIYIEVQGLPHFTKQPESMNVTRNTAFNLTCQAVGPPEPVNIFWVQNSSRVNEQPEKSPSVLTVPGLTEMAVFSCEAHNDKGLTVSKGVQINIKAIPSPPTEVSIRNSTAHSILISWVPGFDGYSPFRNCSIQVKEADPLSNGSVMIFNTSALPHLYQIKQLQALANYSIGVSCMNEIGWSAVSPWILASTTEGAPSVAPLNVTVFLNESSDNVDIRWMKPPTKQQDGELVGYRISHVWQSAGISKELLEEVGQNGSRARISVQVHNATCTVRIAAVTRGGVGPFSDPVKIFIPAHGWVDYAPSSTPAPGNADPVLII
In words: Biacore 3000 SPR, rhMer-Fc on a CM5 chip, antibody injected for 3 min; concentration from Example 2, not printed on the sheet.

For assay [12], the target named is T4, recombinant human Tyro3/Dtk-Fc chimera (rhTyro3/Dtk-Fc; R&D Systems, Cat no. 859-DK) (human, UniProt Q06418 41-429).
T4 construct: Bought construct; Fc part of the bought chimera not given
T4 sequence: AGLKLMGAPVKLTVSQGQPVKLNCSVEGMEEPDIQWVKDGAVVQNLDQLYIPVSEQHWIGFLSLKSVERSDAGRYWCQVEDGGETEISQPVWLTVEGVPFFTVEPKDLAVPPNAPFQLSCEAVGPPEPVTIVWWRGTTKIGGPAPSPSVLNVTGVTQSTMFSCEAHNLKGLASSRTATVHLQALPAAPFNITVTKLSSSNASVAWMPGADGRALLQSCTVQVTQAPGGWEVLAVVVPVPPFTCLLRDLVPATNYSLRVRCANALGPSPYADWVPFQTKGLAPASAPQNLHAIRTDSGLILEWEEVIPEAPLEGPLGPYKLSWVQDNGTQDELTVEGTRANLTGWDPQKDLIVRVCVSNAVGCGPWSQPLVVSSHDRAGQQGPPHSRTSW
In words: Biacore 3000 SPR, rhTyro3/Dtk-Fc on a CM5 chip, antibody injected for 3 min; concentration from Example 2, not printed on the sheet.

Assay [13] concerns the target T5, human Axl receptor on cells (MDA-MB-231, HeLa, LX2, Axl-positive cells) (human, UniProt P30530 26-894). In words: cell-based or functional assay.
Assay [14] has as its target T5, human Axl receptor on cells …. In words: cell-based or functional assay. The source holds these as a separate data set.
In assay [15] the target is T1, recombinant human Axl-Fc chimera …. In words: SPR (Biacore), rhAxl immobilised on the sensor chip.
Assay [16] has the same target. In words: SPR (Biacore), rhAxl immobilised on the sensor chip, antibody as analyte.
The target in assay [17] is T5, human Axl receptor on cells …. In words: flow cytometry on MDA-MB-231 cells, APC-conjugated anti-human IgG F(ab')2 detection.
For assay [18] the target is unchanged. In words: flow cytometry titration on MDA-MB-231 cells, Kd of the fitted curve, the axis of the fitted curves is Conc. (nM) [table under the graph].
Assay [19] deals with recombinant human Axl-Fc chimera (rhAxl-Fc; R&D Systems, Cat. no. 154-AL) (human) (UniProt P30530). In words: SPR two-injection competition on immobilised Axl-Fc; second injection, competitor bound first: Gas6.
For assay [20] the target is unchanged. In words: SPR two-injection competition on immobilised Axl-Fc; second injection, competitor bound first: H2L1.
Assay [21] shares this target. In words: SPR two-injection competition on immobilised Axl-Fc; response expected for the second sample (first: Gas6).
Assay [22] has the same target. In words: SPR two-injection competition on immobilised Axl-Fc; response expected for the second sample (first: H2L1).

Where “and” joins values, the source holds several entries; their conditions need not be identical. Equal values may be shown once.

B1: chimeric 1H12 anti-Axl antibody (antibody, from another filing, V domains shown)
VH: EVQLVESGGDLVKPGGSLKLSCAASGFTFSSYGMSWVRQTPDKRLEWVATISSGGSYTYYPDSVKGRFTISRDNAKNTLYLQMSSLKSEDTAMYYCARHPIYYTYDDTMDYWGQGTSVTVSS
VL: ENVLTQSPAIMAASPGEKVTMTCSASSSVSSGNFHWYQQKPGTSPKLWIYRTSNLASGVPARFSGSGSGTSYSLTISSMEAEDAATYYCQQWSGYPWTFGGGTKLEIK
Turning to B1, the 1st Response in [1] was 400 and 220. The 2nd Response in assay [2] worked out at 180; in assay [3], 400. Besides, the Expected response if independent in assay [4] came out at 220; in assay [5], 400.

B2: mouse monoclonal antibody 10G5 (antibody, V domains shown)
VH: QVQLQQSGAELVRPGASVKLSCKASGYSFTDFYINWVRQRPGQGLEWIARIFPGGDNTYYNEKFKGKATLTAEESSSTAYIQLSSLTSEDSAVYFCARRGLYYAMDYWGQGISVTVSS
VL: DVLMTQTPLSLPVSLGDQASISCRSSQSLVHSNGIPYLHWYLQKPGQSPKLLIYRVSNRFSGVPDRFSGSGSGTDFTLKISRVEAEDLGVYFCSQGTHVPPTFGGGTKLEIK
notes: Whole mouse IgG purified from hybridoma supernatant; also called murine 10G5; MAb 10G5
Turning to B2, the “Half-life (t1/2)” value in assay [6] and in [7] was 26.3 min in each case. The dissociation constant (Kd) in assay [7] and in assay [8] was 0.53 nM in each case. The dissociation rate constant (koff) in [7] and in [9] was 0.000439 s⁻¹ each time. Besides, the kon in assay [7] and in assay [9] was 829000 M⁻¹ s⁻¹ throughout. Besides, the binding result is “binds” in [10], “no binding (tested: 10 µg/mL)” in [11] and “no binding (tested: 10 µg/mL)” in assay [12].

B3: humanised 10G5 antibody H1L1 (antibody, human IgG1, kappa, V domains shown)
VH: EVQLVQSGAGLVQPGGSVRLSCAASGYSFTDFYINWVRQAPGKGLEWIARIFPGGDNTYYNEKFKGRFTLSADTSSSTAYLQLNSLRAEDTAVYYCARRGLYYAMDYWGQGTLVTVSS
VL: DIQMTQSPSSLSASVGDRVTITCRSSQSLVHSNGIPYLHWYQQKPGKAPKLLIYRVSNRFSGVPSRFSGSGSGTDFTLTISSLQPEDFATYYCSQGTHVPPTFGQGTKVEIKR
notes: H1L1 is read as GH1 heavy chain + GL1 light chain; also called hu10G5 H1L1
Consider B3, for which, in assay [13], the “EC50 (pM), killing of MDA-MB-231 cells by antibody coupled to Saporin (FabFc-ZAP), XTT/PMS viability after 72 hrs” value amounted to 3.44 pM. For the same molecule, the “EC50 (pM), tumour cell killing by antibody-Saporin conjugates, as in Example 20” value in assay [14] came out at 17.1 pM. Besides, the “Half-life (t1/2)” value in assay [15] is 71.7 min. For the same molecule, in assay [16], the dissociation constant (Kd) came to 0.105 nM, the dissociation rate constant (koff) worked out at 0.000161 s⁻¹ and the association rate constant (kon) amounted to 1.54e+06 M⁻¹ s⁻¹. Moreover, in [17], the “EC50 (read off the curve)” value was approximately 0.1 nM. This molecule also registered a dissociation constant (Kd) in [18] of 0.12 nM.

B4: humanised 10G5 antibody H2L1 (antibody, human IgG1, kappa, V domains shown)
VH: EVQLVESGGGLVQPGGSLRLSCAASGYSFTDFYINWVRQAPGKGLEWVARIFPGGDNTYYNEKFKGRFTLSADTSKSTAYLQMNSLRAEDTAVYYCARRGLYYAMDYWGQGTLVTVSS
VL: DIQMTQSPSSLSASVGDRVTITCRSSQSLVHSNGIPYLHWYQQKPGKAPKLLIYRVSNRFSGVPSRFSGSGSGTDFTLTISSLQPEDFATYYCSQGTHVPPTFGQGTKVEIKR
notes: H2L1 is read as GH2 heavy chain + GL1 light chain; also called hu10G5 H2L1; Hu10G5 (H2L1)
On to B4, for which, in [13], the “EC50 (pM), killing of MDA-MB-231 cells by antibody coupled to Saporin (FabFc-ZAP), XTT/PMS viability after 72 hrs” value was 2.68 pM. Also, in [14], the “EC50 (pM), tumour cell killing by antibody-Saporin conjugates, as in Example 20” value is 2.66 pM. Also, the “Half-life (t1/2)” value in assay [15] was found to be 81.4 min. Further, in assay [1], the 1st Response came to 323. Besides, the Kd in [16] turned out to be 0.0686 nM; in assay [18], 0.192 nM. Moreover, the koff in [16] worked out at 0.000142 s⁻¹. In [16], the association rate constant (kon) stood at 2.07e+06 M⁻¹ s⁻¹. Besides, the 2nd Response in assay [19] was determined as 301; in assay [20] it was 8.9. The “EC50 (read off the curve)” value in [17] was approximately 0.2 nM. Also, the Expected response if independent in assay [21] is 318; in assay [22], 323.

Broadly, the Kd is the concentration at which binding is half-saturated. The term koff denotes the first-order rate constant of dissociation. As usually defined, the kon is the second-order rate constant of association. A word on the EC50 (read off the curve): it is the concentration that produces a half-maximal response.
